B1: Yen1-1xHA, wild-type, purified [S. cerevisiae] / GST-Smt3 [S. cerevisiae] (parent complex)
chain 1: MGVSQIWEFLKPYLQDSRIPLRKFVIDFNKSQKRAPRIAIDAYGWLFECGFIQNIDISARSRSRSRSPTRSPRDSDIDSSQEYYGSRSYTTTGKAVINFISRLKELLSLNVEFLLVFDGVMKPSFKRKFNHEQNATTCDDEKEYYSSWEQHVKNHEVYGNCKGLLAPSDPEFISLVRKLLDLMNISYVIACGEGEAQCVWLQVSGAVDFILSNDSDTLVFGGEKILKNYSKFYDDFGPSSITSHSPSRHHDSKESFVTVIDLPKINKVAGKKFDRLSLLFFSVLLGADYNRGVKGLGKNKSLQLAQCEDPNFSMEFYDIFKDFNLEDLTSESLRKSRYRLFQKRLYLYCKDHSVELFGRNYPVLLNQGSFEGWPSTVAIMHYFHPIVQPYFDEEVLSDKYINMAGNGHYRNLNFNELKYFLQSLNLPQISSFDKWFHDSMHEMFLLREFLSIDESDNIGKGNMRITEEKIMNIDGGKFQIPCFKIRYTTFLPNIPISSQSPLKRSNSPSRSKSPTRRQMDIMEHPNSLWLPKYLIPQSHPLVIQYYETQQLIQKEKEKKGKKSNKSRLPQKNNLDEFLRKHTSPIKSIGKVGESRKEILEPVRKRLFVDTDEDTSLEEIPAPTRLTTVDEHSDNDDDSLIFVDEITNSQSVLDSSPGKRIRDLTQDEQVDVWKDVIEISPIKKSRTTNAEKNPPESGLKSRSSITINARLQGTKMLPPNLTAPRLEREHSSVLDQLVTDAQDTVDRFVACDSDSSSTIE
chain 2: MSDSEVNQEAKPEVKPEVKPETHINLKVSDGSSEIFFKIKKTTPLRRLMEAFAKRQGKEMDSLRFLYDGIRIQADQTPEDLDMEDNDIIEAHREQIGGATY

Variants of: B1
Experiment: pull-down (GST-Smt3 on Glutathione resin, immuno-blot anti-HA); 1/10 inputs, 1/4 elution; parent: 1

Variant	ratio to parent
chain 1 V675A, chain 1 E677A	0.9
chain 1 D635A, chain 1 D636A, chain 1 D637A	0.9

From paper PMC8986097, “SUMO-mediated recruitment allows timely function of the Yen1 nuclease in mitotic cells” (PLoS Genetics, 2022)
